Assay results reported in US20160257946A1.

Target: Her2 on the Her2-positive breast cancer cell line SKBR3 (UniProt P04626)
Assay: cell-based or functional assay

For “trastuzumab-MMAF conjugates (trastuzumab-HC136-MMAF) (antibody)”, the cytotoxicity (cell killing, Cell Titer-Glo viability) on SKBR3 cells, EC50 was 0.043 to 0.071 nM.
